Source: article PMC3991700

Biological target: T1, FilR1 (Methanosaeta harundinacea 6Ac) (UniProt G7WMP6)
T1 sequence: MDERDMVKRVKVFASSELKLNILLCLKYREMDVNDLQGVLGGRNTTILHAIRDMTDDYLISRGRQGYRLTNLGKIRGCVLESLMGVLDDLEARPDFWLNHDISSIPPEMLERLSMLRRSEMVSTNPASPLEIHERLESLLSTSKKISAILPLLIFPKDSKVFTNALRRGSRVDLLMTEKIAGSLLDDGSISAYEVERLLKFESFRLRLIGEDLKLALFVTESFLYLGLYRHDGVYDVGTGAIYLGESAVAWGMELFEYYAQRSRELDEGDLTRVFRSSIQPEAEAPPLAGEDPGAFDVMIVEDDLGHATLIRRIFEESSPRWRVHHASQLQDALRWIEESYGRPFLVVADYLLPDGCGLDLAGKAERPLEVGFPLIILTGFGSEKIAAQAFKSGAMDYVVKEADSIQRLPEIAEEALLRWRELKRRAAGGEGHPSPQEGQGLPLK
Experiment: EMSA
Conditions: EMSA: 10 mM Tris-HCl pH 8.0, 50 mM KCl, 10 mM MgCl2, 1 mM DTT, 2.5% glycerol, 1% NP-40, 0.5 mM EDTA, 1 ug/uL poly dI-dC, 10 fmol (0.5 nM) biotin probe, 20 uL …

Row | Sequence | binding
1 | AACCCCCATAAATGATAGATCCGAAAGTAATTAAATAAATCGGTCGGTCTTCGGCCGCGGGTGGAACCAGAGGATCCCATCAGCTATGAGGGGGATCGTCAGGTGGACCGCCCTTTGAAGGATCATCCATCTCCTGAGACCTCCAGACCCCGGCGAGATGGCCGTTAGTCTCCATAAGCTCTCTCCAGCTGCCGGATTCGACAAATCGCCCCCTCTCCAGGACCTGGATCATTACCGAGGAGAGGTTTTGCCC (double strand) [Pomp] | binds
2 | CCATCCCTCTCCCTCAAGATATAGGAGGGAAAAGGTGGACGCTCACTTGGCGAGCGTCACCTTCTCGATGGTAACCTTGGCGTCCTTGAGGATCAGCTTGATCCCGCCCGCTCCGCCCGCCGACATGGCAAAGGCGGGGGCAGCTCCTGCCGCCGGGGCTGCTGCTGCGGCCGGAGCCGCCGCGGCAGGTGCTCCAGGTTCCTTCGACTTCAGCTTCAGTGACAGTTTCTTGGCCATTCCTATAACCTCCTACACCCTCAAATACAGAGATACTATAAATTC (double strand) [cdhCD promoter] | no binding
3 | GCTAACCATGTCCATTTGCTCTCCTCCTTTTTAATTCTTGCCAAATCATAGTAATCTATGAAAAATTTGGCCAGTAACGTACTGACTATCGGTTACTGGACTTATAAAGCTTTCGAAATGGAAATGAAAGCCCCATTTTTGTTTTTTGTCCCGGTTTTAGTGAGCCCGAAAGATCTGAAATCCCCAAATAAAAGCCTGAAATATAAAAAAAACAAGGAAGAACAGTTTGGGGCGAA (double strand) [Pmtr] | binds
4 | CCATTAGGAGCCGTCGATTCAGCTGTTTTTGATTTTCAGGATTTATACCCGGCCGATATTCCATATTTTGGAATCTATAATGATTAAAAGGCCACTAACCTTATTAATCATGAAGATTACTAATCGACATGGTCCAGTCGAGCGTTCTCTATAGACAAACGGAGAGAATGCGTGGCAGATTCTGGTTTGAAATCTCCGTATTGGAGCTGGTATCTGCCCGGGGATCTGGGGAGAGAAGAGTGCAAAATATTCGATCTTTGATTAAGGAGGGTTGAAATTGGCT (double strand) [Pacs4] | binds
5 | ACCCGTTTGACCATATCCCTTTCGTCCATGTTGAGGTCCCCCTCATTTTAAGGGCCTAAATGGCGTAGATCCACGAAAGCCGGGAGCGATTCGCGATCCGACGGAACAACTCCCCAGTTATCGGCTTGATATCAGCCTCCACCCTCCAATTTCGCGAGCCCATCTCCTCGGCTTGAGTTTTTTCCTTGATTTCGCCGTATAAGTAGCTTCCGACGATCCCGATGCTGATAGAAGCTCTGAAGTTCTCATCGTACCG (double strand) [PfilR1 (filR1 promoter)] | binds
6 | AGATGAAACCAGAATTATCGTTGAAGATCCCTCCCTCCGAAGATCTCCGATGGATCTCATCGATGGAACCATCTGAGGAGGCGGATCGTCGTCACCGGTTCCCCACCCGCGATGGACAATTATTCGTTATACTCGGAGGGTTATCTTCATAAACCACGGACGGATGACAGTAAGGCAGGTGCGAGGCCTTCATCACCCAGTGGACGGAGAGACAATCTCGTTTTGGAGGAGGTTGAAAGGAAG (double strand) [PfilI-R2 (filI-filR2 promoter)] | binds
7 | AACGGGTTCCATCTCGATATGATCAAGGGGTGGGGGGTTTATTAATAGGTTGAGGTCCCCCTCTCGAGGCCCGGAAAGGGCAAGAGATCCCCCGATAGATTTTTATCGACCGCATATTATCGAATTTTCCCCCGGCAGAGAGGCGGAGGCTTTATACCATTTTGGCATATCGAGGGTGAGTGGGTGAATCGGCATGGCGGAG (double strand) [Pacs1] | binds
8 | AATCCACCTAAACTCACCCATATTATGCCAGTTTGAAGCCTTTTAGGACCGACCGCATCACTGCTTAGCGGTAGTGATGCTAATCGATTTTCTCATAAACCTTTTATATCAGTACCTTGTGTTTAGCTCTTACGGCTAATGGAGGTAAAAAATGAGCGGCGAATTGGTG (double strand) [fpo promoter] | no binding
9 | GGTCGGAGAGGCTGAGGGCGATCCCCGTCGTCGTCCTCACCACCTCCACCAGCGACGACGACCTCCGGCGGGCCTACTCCAACCACGTCAACAGCTACCTCATCAAGCCCCTCAGCTTCGAGGACCTGAAGCGGACCGTCGAGGAGATCAAAGAGTACTGGCTTGGATGGAACCGCTCCCCCGGACCCGCGTGAAAGACCCCAGAGGTGAGCGAAACCGAGGCCTTCACCCATGACGCTGCGCC (double strand) [UfilI (internal fragment of filI)] | no binding
10 | AAACCGCCCTCCTCTCCAGCCTCTCACCATTTCAACCTGGCGGATTGAGTTCAATCTAAATGGATTTTTATCAATTTAATTGGATATCCTCCCATCAAAACATAATCGGTAATTTTTAGCATTAAATCACCGTCACGATTTCACAAACTTAAATGTATATGTGTTCTAATCAATAAACTAAACAATAATATTCTCATTATACTAGTTGCCAATCCGAAAGGGTTTTATCTTCTACATGCGACTACCGAGCAAACCAGAGTACAGAAGGAGGTCAAGC (double strand) [cdhBEA promoter] | no binding
